# Measurements from the supplement of paper PMC12764529.
# ± gives the half width of the 95% confidence interval.
# Experiment: folding stability dG unfold from chymotrypsin proteolysis; higher = more stable
# Procedure, shortened: (§1)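 Sequencing followed digestion of designed mini-proteins with trypsin and chymotrypsin, each at 11 concentrations in threefold dilutions together with a no-protease condition. The mini-proteins were under 80 residues, had no cysteine, sat in a PA-tagged cDNA display construct, and were kept only if AlphaFold2 dimer inter-PAE was above 15. From the counts, Bayesian fitting gave K50, and unfolding free energy was derived against a sequence-predicted unfolded-state K50 and a shared folded-state K50, per protease or combined.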
row,Sequence,folding stability dG unfold
1,SAGGSAGGDVVIIPEPSEEDKMIFTIVADGEEAPVVLTVEADNLADVVDFLKEHGLAAGHPDDGSAGGSAGG [r6_40_TrMRF],0.637 ± 0.052 kcal/mol
2,SAGGSAGGSAKPPVTLTILVKNPETGEWVRLEVEFLPDGTVKITVTNPNGEKYTFTFKLPPSAGGSAGGSAG [r3_61_TrROS_Hall],5.6 ± 0.16 kcal/mol
3,SKPGKTIMIMITMDNIKEFLEELPLEPNMEVEIMFMNPNGKMRTLTIRNGEIDSIEPFPNFPDYWMIMIKSA [r9_849_TrROS],2.92 ± 0.07 kcal/mol
4,SAGGSAGGSAGGEEVTIVVKSKEDIEALLPPGWKVTKIEEIYVDKETGEKYYKITVKKESAGGSAGGSAGGS [r10_256_TrROS_Hall],3.88 ± 0.062 kcal/mol
5,SSSSSRTIEYPDSTLELTFTTTPLPDDTYRVPVQVTRYDPVTKTWSTRNLTVPFPPSDPEAAAEAVIARLLS [r1_171_JUSTAS],0.39 ± 0.11 kcal/mol
6,SAGGSAGGSMVEYTFTVYDPRTGKETLFTVPSDIPFEEAKEKVEKEIRKGLPPNYTVTFTKPASAGGSAGGS [r20_213_JUSTAS],1.45 ± 0.11 kcal/mol
7,SAGGSAGGSAMVVPRTYRVPPGLTVEEVADYLRAKDPNVIDATAERRPDGYLLVTVLVRLDSAGGSAGGSAG [r3_371_TrMRF],2.07 ± 0.079 kcal/mol
8,SAGGSAGGSAGGGMRFTVEVEPGKVSYSPGIVNKNTPGSSVSEIITVTVVETNPEKLLLSAGGSAGGSAGGS [r10_654_JUSTAS],0.638 ± 0.093 kcal/mol
9,SAGGSAGGSPTYTIDVEKYPDGYYFLKIWMPGHNRKIEHPIPPDNPDKIDEITITPNGKIKIDSAGGSAGGS [r20_11_TrROS],0.309 ± 0.24 kcal/mol
10,SAGGSAGGSAGGSIEPITIILPDKIIRIYRFEDGTIVEIIDPETGKPTFISLEDAKKLIGSAGGSAGGSAGG [r7_372_TrMRF],2.81 ± 0.043 kcal/mol
11,SAGGKKPKKLTPEQIEELAKALAPEGAEVKVEVVEVTEKTVVVKITVKDKETGEEKTIEITLPLPEESAGGS [r16_486_TrROS_Hall],1.73 ± 0.14 kcal/mol
12,SKIKPGDVVTIMFPFPPGDPDQIREWAYWIARKLGPDVKVKSVEYNPNDPRYVQIEVRVPGGKITIHIMWSA [r9_1079_TrROS],4.25 ± 0.076 kcal/mol
13,SAGEIKITVEEVEDGELLVTVEITAESKEEALKALEDLIRELFGEDVEIVSVEFDEETKRIRVTIRIKPSAG [r5_810_TrROS_Hall],3.51 ± 0.29 kcal/mol
14,SIKFPDGSEIEFEWSEDKEYEVELPNGPIVKIKKVIKEGESWIVEVEFEDGSKVILEVDPNNPEEVQKAIAS [r1_66_TrMRF],2.19 ± 0.072 kcal/mol
15,SAGGSAGGSRKTILFRFPDGMMIKISLEENPNGNKRVRVTVYNPDNGKKRRMPADELPPNAKISAGGSAGGS [r12_797_TrROS],3.13 ± 0.09 kcal/mol
16,SKKPDQPPKTVPIEIWVPLPPGQTPEWREMAEEFAEIFADELQQEGFKNVTVEVEPNKDGWVHIDAEVQVSA [r9_865_TrROS],-0.283 ± 0.21 kcal/mol

# Experiment: folding stability dG unfold (combined trypsin and chymotrypsin); higher = more stable
# Procedure, shortened: as §1
row,Sequence,folding stability dG unfold
1,SAAPADNPVLVATLTVTVTRPVSFTSPDGSTGTVPETETRTLVLVADAGNDPEALERALELARRLAETVSAG [r14_830_TrMRF],3.51 ± 0.099 kcal/mol
2,SAGGSAGGSAGGPTVTLTLEVPVEDAEELAKALEDAGKARVTKVERNEDGFLRITVEFEDSAGGSAGGSAGG [r7_589_TrROS_Hall],1.06 ± 0.075 kcal/mol
3,SAGGSAGGSAGKKKVKLVEFDEETGYALLEVEDEETGETKLVLVPMTAEELEALPNIEVLSAGGSAGGSAGG [r17_46_TrROS_Hall],2.08 ± 0.24 kcal/mol
4,SMKMSPEEKLKELAKELAEKLEEETGKKVKVRVTVEYNGKTFEIEIEEGETIEDIRNKFPGLKIKVEIEPSA [r9_513_TrROS_Hall],1.08 ± 0.41 kcal/mol
5,SAGGSAGGSAGGMIKTEDGYEVEIKIEVEEIPLPEGMSEEEKEKLKKIRIIRIEIKVTKKSAGGSAGGSAGG [r7_324_TrROS_Hall],2.26 ± 0.36 kcal/mol
6,SAGPKIRTIIKEILKELNPDRPIEIHTHPDGFIIIVNPDDGRFIMIKIDPDGDIKISEVVPAEEMKKMMSAG [r5_852_TrROS],1.49 ± 0.13 kcal/mol
7,SAGGRRKIEFEVWIPMDKDGEITPNEIIEEAREIAEALPNFDNVEIEEISIQHHPDGWTRYNITIEVPSAGG [r13_462_TrROS],2.31 ± 0.31 kcal/mol
8,PWRPIMITVRANPNLKVDIYPPNGPQEEIPVDSPEDALKKAQKLLPPNYPIMVKVQNEGKPIATFPFWIPPS [r1_276_TrROS],2.61 ± 0.52 kcal/mol
9,SKIKKIKRVEIFKKKEKGYVVKITVEIDGKEYEFTVPAGMSLEEALKELLKNKDVKIKSVEIKPVSKEELSA [r9_607_TrROS_Hall],0.595 ± 0.29 kcal/mol
10,SAMPAENMTPEEAAELALAYVERFRAEVEALGGPIPADTEIVVPVTLEGPPVEIKITFINPDEVEVEVASAG [r14_501_TrMRF],1.34 ± 0.17 kcal/mol
11,SAGGSAGGSASSSSSIKFLSEEEIKLPDGTPVKVKIYKDPSNNKEYLYLPESKVWLPISKISAGGSAGGSAG [r3_181_JUSTAS],1.67 ± 0.1 kcal/mol
12,SAELLDALKKNGWTIRIPIKHPGNGETWPMPFRIEPDGDGWKISIPPPNGKPHPFKIEDIEIMPPEDLKSAG [r14_427_TrROS],0.561 ± 0.2 kcal/mol
13,SAGGMLTLPATVEGDELTLTLPTGATKTVSPNTTVKLPDGTVVSLTPVSPSSVSATVTPLPADATRPSAGGS [r16_277_JUSTAS],1.21 ± 0.07 kcal/mol
14,SAGGSAGGIEVKIEGEIKPVKVTVSFSTANGDGNPKEYPVEKTYLVVDIKIEVNSPEAAKKINISAGGSAGG [r6_149_TrMRF],2.51 ± 0.14 kcal/mol
15,SAGGSAGGSAGGKEYKLVKVKVKVEITLPKGSELLKKLGLSEEDVKFEFELEVVVLVKPSAGGSAGGSAGGS [r10_82_TrROS_Hall],3.68 ± 0.23 kcal/mol
16,SAGGSAGGDVVIIPEPSEEDKMIFTIVADGEEAPVVLTVEADNLADVVDFLKEHGLAAGHPDDGSAGGSAGG [r6_40_TrMRF],0.679 ± 0.11 kcal/mol

row,Sequence,folding stability dG unfold
1,SAGGSAGGSAKPPVTLTILVKNPETGEWVRLEVEFLPDGTVKITVTNPNGEKYTFTFKLPPSAGGSAGGSAG [r3_61_TrROS_Hall],5.6 ± 0.27 kcal/mol
2,SKPGKTIMIMITMDNIKEFLEELPLEPNMEVEIMFMNPNGKMRTLTIRNGEIDSIEPFPNFPDYWMIMIKSA [r9_849_TrROS],2.78 ± 0.24 kcal/mol
3,SAGGSAGGSAGGEEVTIVVKSKEDIEALLPPGWKVTKIEEIYVDKETGEKYYKITVKKESAGGSAGGSAGGS [r10_256_TrROS_Hall],4.06 ± 0.12 kcal/mol
4,SSSSSRTIEYPDSTLELTFTTTPLPDDTYRVPVQVTRYDPVTKTWSTRNLTVPFPPSDPEAAAEAVIARLLS [r1_171_JUSTAS],0.355 ± 0.092 kcal/mol
5,SAGGSAGGSMVEYTFTVYDPRTGKETLFTVPSDIPFEEAKEKVEKEIRKGLPPNYTVTFTKPASAGGSAGGS [r20_213_JUSTAS],1.58 ± 0.089 kcal/mol
6,SAGGSAGGSAMVVPRTYRVPPGLTVEEVADYLRAKDPNVIDATAERRPDGYLLVTVLVRLDSAGGSAGGSAG [r3_371_TrMRF],1.69 ± 0.17 kcal/mol
7,SAGGSAGGSAGGGMRFTVEVEPGKVSYSPGIVNKNTPGSSVSEIITVTVVETNPEKLLLSAGGSAGGSAGGS [r10_654_JUSTAS],0.211 ± 0.19 kcal/mol
8,SAGGSAGGSPTYTIDVEKYPDGYYFLKIWMPGHNRKIEHPIPPDNPDKIDEITITPNGKIKIDSAGGSAGGS [r20_11_TrROS],0.263 ± 0.17 kcal/mol
9,SAGGSAGGSAGGSIEPITIILPDKIIRIYRFEDGTIVEIIDPETGKPTFISLEDAKKLIGSAGGSAGGSAGG [r7_372_TrMRF],2.61 ± 0.16 kcal/mol
10,SAGGKKPKKLTPEQIEELAKALAPEGAEVKVEVVEVTEKTVVVKITVKDKETGEEKTIEITLPLPEESAGGS [r16_486_TrROS_Hall],2.24 ± 0.22 kcal/mol
11,SKIKPGDVVTIMFPFPPGDPDQIREWAYWIARKLGPDVKVKSVEYNPNDPRYVQIEVRVPGGKITIHIMWSA [r9_1079_TrROS],3.7 ± 0.12 kcal/mol
12,SAGEIKITVEEVEDGELLVTVEITAESKEEALKALEDLIRELFGEDVEIVSVEFDEETKRIRVTIRIKPSAG [r5_810_TrROS_Hall],4.35 ± 0.35 kcal/mol
13,SIKFPDGSEIEFEWSEDKEYEVELPNGPIVKIKKVIKEGESWIVEVEFEDGSKVILEVDPNNPEEVQKAIAS [r1_66_TrMRF],2.06 ± 0.1 kcal/mol
14,SAGGSAGGSRKTILFRFPDGMMIKISLEENPNGNKRVRVTVYNPDNGKKRRMPADELPPNAKISAGGSAGGS [r12_797_TrROS],2.64 ± 0.15 kcal/mol
15,SKKPDQPPKTVPIEIWVPLPPGQTPEWREMAEEFAEIFADELQQEGFKNVTVEVEPNKDGWVHIDAEVQVSA [r9_865_TrROS],0.322 ± 0.26 kcal/mol
